Experiment [1] in a line: Plasma glucose and triglyceride levels (commercial kits). It is filed as in vivo, mice. The note with it: SPX 29 µg/kg/day ten days, RT or cold; non-fasting; n = 6–7. The method, then: (§1) Normal adult male C57BL/6 mice (four months of age) were kept in a temperature-controlled environment (20–22 °C and a fixed 12 h light/12 h dark cycle; lights on at 07:00 h) and fed ad libitum with Purina commercial rat/mouse chow (Ganave, Buenos Aires, Argentina, L0723/1). Mice were injected with SPX or PBS (29 µg/kg/day, Tocris, Bristol, UK) for ten days (the SPX and CTR groups, respectively). On the third day of the protocol, each group was subdivided into two other groups: one exposed to cold (4 °C, CTR-C and SPX-C, n = 12 mice for each group) and another one housed at RT (CTR and SPX, n = 15 mice for each group) (Figure 1). Food intake and body weight were measured every day. On the experimental day (day 10), the mice were euthanized under non-fasting conditions (08:00 to 09:00 h), and their trunk blood was collected; plasma samples were then frozen (–80 °C) until the metabolite measurement. Inguinal AT (IAT, subcutaneous depot), epididymal AT (EAT, visceral depot), and brown AT (BAT, subcutaneous depot) were aseptically dissected and weighed. These depots were kept at –80 °C for further procedures. […]
Circulating glucose (Glu) and triglyceride (Tg) levels were measured using commercial kits (Wiener Lab., Rosario, Argentina). Plasma SPX was measured using a commercial ELISA kit (SPX: Phoenix pharmaceutical EK-023-81).

The test system of experiment [2] is ucp1. The experiment can be described thus: ucp1 mRNA expression in AT depots (qRT-PCR). The experiment is classed as in vivo, mice. The method, then: (§2) Normal adult male C57BL/6 mice (four months of age) were kept in a temperature-controlled environment (20–22 °C and a fixed 12 h light/12 h dark cycle; lights on at 07:00 h) and fed ad libitum with Purina commercial rat/mouse chow (Ganave, Buenos Aires, Argentina, L0723/1). Mice were injected with SPX or PBS (29 µg/kg/day, Tocris, Bristol, UK) for ten days (the SPX and CTR groups, respectively). On the third day of the protocol, each group was subdivided into two other groups: one exposed to cold (4 °C, CTR-C and SPX-C, n = 12 mice for each group) and another one housed at RT (CTR and SPX, n = 15 mice for each group) (Figure 1). Food intake and body weight were measured every day. On the experimental day (day 10), the mice were euthanized under non-fasting conditions (08:00 to 09:00 h), and their trunk blood was collected; plasma samples were then frozen (–80 °C) until the metabolite measurement. Inguinal AT (IAT, subcutaneous depot), epididymal AT (EAT, visceral depot), and brown AT (BAT, subcutaneous depot) were aseptically dissected and weighed. These depots were kept at –80 °C for further procedures. Animals were euthanized according to protocols for animal use, in agreement with the NIH guidelines for the care and use of experimental animals. All experiments were approved by our Institutional Animal Care Committee (Approval code: 6NE-2023).
(§3) Total RNA was isolated from cells by the Trizol extraction method (Invitrogen, Life Technology, Waltham, MA, USA) and reverse-transcribed using random primers (250 ng) and RevertAid Reverse Transcriptase (200 U/µL, Thermo Scientific, Waltham, MA, USA). The cDNA (2 μL) was amplified with HOT FIRE Pol EvaGreenqPCR Mix Plus (Solis BioDyne, Tartu, Estonia) containing 0.5 μM of each specific primer, using a Rotor-Gene Q (Qiagen, Hilden, Germany). PCR efficiency was near 1. The expression levels were analyzed for β-actin (βactin, […] gene), Uncoupling Protein 1 (ucp1), proliferator-activated receptor gamma coactivator-1 alpha (pgc1α), cytochrome-c oxidase subunit 8b (cox8b), galanin receptors 2 and 3 (galr2 and galr3, respectively), and Spexin (spx). The designed primers are shown in alphabetical order in Table 1. The relative changes in the expression level of each gene (ΔΔCt) were calculated by the ΔCt method.
A general note: Real-time PCR tracks product formation cycle by cycle.

Experiment [3] deals with ucp1. The experiment can be described thus: UCP1 protein expression in EAT and IAT (Western blot). The experiment is classed as in vivo, mice. The procedure: as §1, with “measurement.” for “measurement. Inguinal AT (IAT, subcutaneous depot), epididymal AT (EAT, visceral depot), and brown AT (BAT, subcutaneous depot) were aseptically dissected and weighed. These depots were kept at –80 °C for further procedures.”
For protein analysis by Western blot, IAT and EAT were lysed in a RIPA buffer supplemented with a protease and phosphatase inhibitor cocktail. Protein contents were quantified with the bicinchoninic acid method (Thermo Scientific, Pierce™ BCA Protein Assay Kit). […] Finally, relative protein levels were calculated using Image J Fiji software 1.54f.
Background: A western blot detects proteins with antibodies after separation by electrophoresis.

The test system of a further experiment is pgc1α. The experiment can be described thus: pgc1α mRNA expression in AT depots (qRT-PCR). The experiment is classed as in vivo, mice. The procedure:
as §2
as §3, with “The cDNA (2 μL) was amplified with HOT FIRE Pol EvaGreenqPCR Mix Plus (Solis BioDyne, Tartu, Estonia) containing 0.5 μM of each specific primer, using a Rotor-Gene Q (Qiagen, Hilden, Germany). PCR efficiency was near 1.” left out, “The designed primers are shown in alphabetical order in Table 1.” left out

For another experiment, the system named is mitochondrial DNA. The experiment can be described thus: Mitochondrial DNA content quantification (qPCR). It is filed as in vivo, mice. The method, then:
as §1, with “measurement.” for “measurement. Inguinal AT (IAT, subcutaneous depot), epididymal AT (EAT, visceral depot), and brown AT (BAT, subcutaneous depot) were aseptically dissected and weighed. These depots were kept at –80 °C for further procedures.”
Tissue from the EAT and IAT depots were homogenized with lysis buffer (40 mM EDTA, 50 mM NaCl, 100 mM Tris, 0.2% SDS) in PBS (2:1) and, for DNA fragmentation, samples were sonicated (38 kHz ± 10% for 5–10 s). […] Finally, the DNA was dissolved in TE buffer and quantified by Nanodrop at 260 nm. […] The relative changes in the DNA mitochondrial content were calculated by 2[2, −ΔΔCt] […]

The next experiment relates to ucp1, pgc1α, and prdm16. The note with it: obese female mice treated with SPX for 50 days; cited from earlier work. An excerpt:
(§4) Little is known about the role of SPX in thermogenesis. […] In the liver, results are contradictory. While one study has shown that SPX decreases pgc1α expression both in vivo and in vitro [26], another study has shown the opposite effect. Thus, the aim of this study was to evaluate the role of SPX during WAT thermogenesis under both room temperature (RT) and cold-stimul ...

Another experiment has as its system β3-adrenergic receptors. The note with it: obese female mice treated with SPX for 50 days; cited from earlier work.
Description: as §4

[4] abbreviates: cold-stimulated conditions (7 days 4 °C), SPX-C vs. CTR-C p < 0.0001.

B1: Spexin (peptide, UniProt Q9BT56 27-116, looked up)
Spexin: APQRLLERRNWTPQAMLYLKGAQGRRFISDQSRRKDLSDRPLPERRSPNPQLLTIPEAATILLASLQKSPEDEEKNFDQTRFLEDSLLNW
modifications: Spexin
notes: novel adipokine, a peptide of 14 amino acids of the galanin family; purchased from Tocris
Regarding B1, in experiment [1], the “plasma Tg levels” value is on record as “did not change” and the plasma glucose levels result is “did not change”. Besides, the “ucp1 mRNA expression in BAT” value in the experiment with ucp1 [2] (RT and cold, C p < 0.001, Supplementary Figure S2a) is “increased under cold exposure despite the SPX treatment”. Besides, the “ucp1 mRNA expression in IAT and EAT” value with ucp1 [2] (RT, SPX vs. CTR) is given as “SPX inhibition was also significant, but only when a t-test was performed”. For the same molecule, in the experiment on ucp1 [2] (setting [4]), the “ucp1 mRNA expression in EAT” value is “ucp1 inhibition” and the “ucp1 mRNA expression in IAT” value is reported as “ucp1 inhibition”. Moreover, the “UCP1 protein levels in EAT (Western blot)” value in the experiment on ucp1 [3] (basal and cold conditions, p < 0.05, n = 4–6) is “reduced the UCP1 protein levels at both basal and cold conditions”. For the same molecule, the “UCP1 protein levels in IAT (Western blot)” value in the experiment on ucp1 [3] (cold, SPX-C intermediate between CTR and CTR-C, C × S p < 0.05) is reported as “partial decrease in UCP1 levels”. For the same molecule, the “pgc1α mRNA expression in BAT” value with pgc1α (RT and cold, Supplementary Figure S2b) is recorded as “no changes were observed”. For the same molecule, the “pgc1α mRNA expression in EAT” value in the experiment with pgc1α (cold conditions, C p < 0.0001) is “increased in EAT for both the control and treated groups”. Moreover, the “pgc1α mRNA expression in IAT” value with pgc1α (cold, SPX-C vs. CTR-C, p < 0.001) is “inhibited due to SPX in cold conditions”. Besides, the “mitDNA content in EAT” value in the experiment on mitochondrial DNA (RT and cold) is on record as “no changes”. Moreover, the “mitDNA content in IAT” value in the experiment on mitochondrial DNA (cold, SPX-C intermediate between CTR and CTR-C, C × S p < 0.01) is reported as “partial inhibition, although no significant differences were found”. The “ucp1, pgc1α, and prdm16 expressions in BAT” value in the experiment with ucp1, pgc1α, and prdm16 is given as “decreased”. Moreover, in the experiment on β3-adrenergic receptors, the “immunodetection of β3-adrenergic receptors in gonadal WAT” value is “lower immunodetection”.

The values above are taken from publication PMC10855774, “Role of Spexin in White Adipose Tissue Thermogenesis under Basal and Cold-Stimulated Conditions” (International Journal of Molecular Sciences, 2024).
